Values belong to the molecule of their own block, whether it stands above or below them.
What was measured:
[1] = target: NLuc/ACKR3, exogenously (stably) expressed in HEK293 cells (UniProt P25106); assay: FRET or BRET; NanoBRET saturation binding on live cells (30,000 cells/well) with NLuc-tagged receptor; increasing CXCL12-AF647 for 60 min at 37°C in HBSS with 0.1% BSA; non-specific binding with AMD3100 (10 μM) for CXCR4 or CXCL11 (10 μM) for ACKR3; furimazine 10 μM
[2] = target: NLuc/ACKR3, genome-edited, in HeLa cells (human (endogenous in HeLa)) (UniProt P25106); assay: as above
[3] = target: NLuc/CXCR4, genome-edited, in HEK293 cells (human (endogenous in HEK293)) (UniProt P61073); assay: as above
[4] = target: NLuc/CXCR4, genome-edited, in HeLa cells (human (endogenous in HeLa)) (UniProt P61073); assay: as above
[5] = target: NLuc/ACKR3, exogenously (stably) expressed in HEK293 cells (UniProt P25106); assay: FRET or BRET; NanoBRET saturation binding on membrane preparations (10 μg membrane protein per well) with NLuc-tagged receptor; increasing CXCL12-AF647 for 60 min at 37°C in HBSS with 0.1% BSA; non-specific binding with AMD3100 (10 μM) for CXCR4 or CXCL11 (10 μM) for ACKR3
[6] = target: NLuc/CXCR4, exogenously (stably) expressed in HEK293 cells (UniProt P61073); assay: as above
[7] = target: HiBiT/CXCR4, genome-edited, in HEK293 cells (human (endogenous in HEK293)) (UniProt P61073); assay: FRET or BRET; NanoBRET saturation binding on live HEK293 cells with genome-edited HiBiT/CXCR4; CXCL12-AF647 for 60 min at 37°C, then furimazine (10 μM) and purified cell-impermeant LgBiT (10 nM) added, so that only receptors at the plasma membrane are seen; non-specific binding with AMD3100 (10 μM)
[8] = target: CXCR4/LgBiT, genome-edited, in HEK293 cells (human (endogenous in HEK293)) (UniProt P61073)
[9] = target: CXCR4/LgBiT, transiently transfected in HEK293 cells (UniProt P61073)
[10] = target: HiBiT/CXCR4, exogenously (stably) expressed in HEK293 cells (UniProt P61073)
[11] = target: HiBiT/CXCR4, genome-edited, in HEK293 cells (human (endogenous in HEK293)) (UniProt P61073)
[12] = target: HiBiT/ACKR3, exogenously expressed in HEK293 cells (UniProt P25106)
[13] = target: HiBiT-Halotag, control peptide; assay: split reporter (BiFC, NanoBiT); HiBiT-LgBiT complementation of purified proteins: 1 nM HiBiT-Halotag in HBSS with 0.1% BSA, increasing purified LgBiT; without AMD3100
[14] = target: HiBiT-Halotag, control peptide; assay: split reporter (BiFC, NanoBiT); HiBiT-LgBiT complementation of purified proteins: 1 nM HiBiT-Halotag in HBSS with 0.1% BSA, increasing purified LgBiT; in the presence of AMD3100 (10 μM)
[15] = target: HiBiT/CXCR4, genome-edited, in HEK293 cells (human (endogenous in HEK293)) (UniProt P61073); assay: split reporter (BiFC, NanoBiT); HiBiT-LgBiT complementation, saturation on live HEK293 cells with genome-edited HiBiT/CXCR4; increasing purified LgBiT; in the presence of AMD3100 (10 μM)
[16] = target: HiBiT/CXCR4, genome-edited, in HEK293 cells (human (endogenous in HEK293)) (UniProt P61073); assay: split reporter (BiFC, NanoBiT); HiBiT-LgBiT complementation, saturation on membrane preparations (10 μg, 0.25 mg/ml saponin) from genome-edited HiBiT/CXCR4 HEK293 cells; increasing purified LgBiT; without AMD3100
[17] = target: HiBiT/CXCR4, genome-edited, in HEK293 cells (human (endogenous in HEK293)) (UniProt P61073); assay: split reporter (BiFC, NanoBiT); HiBiT-LgBiT complementation, saturation on membrane preparations (10 μg, 0.25 mg/ml saponin) from genome-edited HiBiT/CXCR4 HEK293 cells; increasing purified LgBiT; in the presence of AMD3100 (10 μM)
[18] = target: HiBiT/CXCR4, genome-edited, in HEK293 cells (human (endogenous in HEK293)) (UniProt P61073); assay: split reporter (BiFC, NanoBiT); HiBiT-LgBiT complementation, saturation on live HEK293 cells with genome-edited HiBiT-tagged receptor; increasing purified LgBiT for 30 min at 37°C in HBSS with 0.1% BSA; without AMD3100; non-specific luminescence on wild-type cells
[19] = target: HiBiT/β2-adrenoceptor, genome-edited, in HEK293 cells (human (endogenous in HEK293)) (UniProt P07550); assay: as above

Molecule: CXCL12 (from UniProt P48061 22-93) (ligand)
pEC50 of CXCL12 (0.3-300 nM) for the increase in NanoBiT luminescence (recruitment of genome-edited β-arrestin2/SmBiT, m14, to genome-edited CXCR4/LgBiT), about 5 min after ligand addition [8]: 7.16 -log M | pEC50 of CXCL12 (0.3-300 nM) for the increase in NanoBiT luminescence (recruitment of transiently transfected β-arrestin2/SmBiT, m13, to genome-edited CXCR4/LgBiT), about 5 min after ligand addition [8]: 7.69 -log M | pEC50 of CXCL12 (0.3-300 nM) for the increase in NanoBiT luminescence (recruitment of genome-edited β-arrestin2/SmBiT, m14, to transiently transfected CXCR4/LgBiT), about 5 min after ligand addition [9]: 7.48 -log M | pEC50 of CXCL12 for the decrease in luminescence (cell surface HiBiT/CXCR4 complemented with purified LgBiT, 10 nM) after 1 h at 37°C, live HEK293 cells stably overexpressing HiBiT/CXCR4 [10]: 8.69 -log M | pEC50 of CXCL12 for the decrease in luminescence (cell surface HiBiT/CXCR4 complemented with purified LgBiT, 10 nM) after 1 h at 37°C, live genome-edited HEK293 cells [11]: 8.46 -log M | pEC50 of CXCL12 for the increase in luminescence of live HEK293 cells with exogenous HiBiT/ACKR3 complemented with purified LgBiT [12]: 8.23 -log M

B1: CXCL11 (ligand)
chain: FPMFKRGRCLCIGPGVKAVKVADIEKASIMYPSNNCDKIEVIITLKENKGQRCLNPKSKQARLIIKKVERKNF
pEC50 of CXCL11 for the increase in luminescence of live HEK293 cells with exogenous HiBiT/ACKR3 complemented with purified LgBiT [12]: 7.48 -log M

Results, then the molecule that gave them:

pKd [1]: 8.12 -log M | pKd [2]: 8.77 -log M | pKd [3]: 7.5 -log M | pKd [4]: 7.58 -log M | pKd [5]: 8.83 -log M | pKd [6]: 7.55 -log M | pKd [7]: 7.49 -log M
Molecule: CXCL12-AF647 (from UniProt P48061 22-93) (ligand)

Kd [13]: 6.99 nM | Kd [14]: 7.73 nM | Kd [15]: 58.5 nM | Kd [16]: 180 nM | Kd [17]: 115 nM | Kd [18]: 230 nM | Kd [19]: 54.5 nM
Molecule: Purified LgBiT (domain or fragment)

— publication PMC7242902
